# System: Escherichia coli TOP10
# Assay: shrunken log2 fold change of peptide-encoding DNA abundance (4.5 h post-induction vs induction); higher = less antimicrobial activity (less host growth inhibition)
# Details: time post-induction: 4.5 h; library: site-saturation at positions 5, 18, 19, 20
# 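Further: peptides expressed intracellularly from a pBAD plasmid library in pooled LB shake-flask culture, induced with 0.3% L-arabinose, DNA abundance read by NGS, three biological replicates, DESeq2 with apeglm shrinkage.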
row,Sequence,shrunken log2 fold change
1,RRIRERPPRLPRPRPRPRRVPRP,0.447
2,RRIRERPPRLPRPRPRPRRWPRP,0.267
3,RRIRERPPRLPRPRPRPRSSPRP,0.116
4,RRIRERPPRLPRPRPRPRSWPRP,0.0987
5,RRIRERPPRLPRPRPRPRVCPRP,0.0408
6,RRIRERPPRLPRPRPRPRWRPRP,0.706
7,RRIRERPPRLPRPRPRPRYRPRP,-0.198
8,RRIRERPPRLPRPRPRPSAQPRP,-0.167
9,RRIRERPPRLPRPRPRPSDSPRP,-0.186
10,RRIRERPPRLPRPRPRPSENPRP,-0.293
11,RRIRERPPRLPRPRPRPSFAPRP,-0.192
12,RRIRERPPRLPRPRPRPSFFPRP,0.221
13,RRIRERPPRLPRPRPRPSFPPRP,-0.704
14,RRIRERPPRLPRPRPRPSHNPRP,-0.903
15,RRIRERPPRLPRPRPRPSHPPRP,-0.481
16,RRIRERPPRLPRPRPRPSLQPRP,0.175
17,RRIRERPPRLPRPRPRPSLYPRP,-0.558
18,RRIRERPPRLPRPRPRPSNGPRP,-0.0949
19,RRIRERPPRLPRPRPRPSNKPRP,-0.811
20,RRIRERPPRLPRPRPRPSNQPRP,-0.841
21,RRIRERPPRLPRPRPRPSNTPRP,-0.942
22,RRIRERPPRLPRPRPRPSPWPRP,-0.445

row,Sequence,shrunken log2 fold change
1,RRIRERPPRLPRPRPRPSQTPRP,-0.067
2,RRIRERPPRLPRPRPRPSRRPRP,-0.432
3,RRIRERPPRLPRPRPRPSSHPRP,-0.0471
4,RRIRERPPRLPRPRPRPSTGPRP,-0.467
5,RRIRERPPRLPRPRPRPSTVPRP,-0.0579
6,RRIRERPPRLPRPRPRPSVEPRP,-0.326
7,RRIRERPPRLPRPRPRPSVIPRP,-0.259
8,RRIRERPPRLPRPRPRPSYRPRP,3.5
9,RRIRERPPRLPRPRPRPTAWPRP,0.378
10,RRIRERPPRLPRPRPRPTCLPRP,-0.233
11,RRIRERPPRLPRPRPRPTCWPRP,0.0288
12,RRIRERPPRLPRPRPRPTCYPRP,-0.673
13,RRIRERPPRLPRPRPRPTDSPRP,0.0161
14,RRIRERPPRLPRPRPRPTEHPRP,-0.144
15,RRIRERPPRLPRPRPRPTFCPRP,-0.0701
16,RRIRERPPRLPRPRPRPTGIPRP,0.0836
17,RRIRERPPRLPRPRPRPTGNPRP,-0.267
18,RRIRERPPRLPRPRPRPTHAPRP,0.332
19,RRIRERPPRLPRPRPRPTHQPRP,-0.135
20,RRIRERPPRLPRPRPRPTIDPRP,-0.227
21,RRIRERPPRLPRPRPRPTIPPRP,-0.475
22,RRIRERPPRLPRPRPRPTKHPRP,-0.347

row,Sequence,shrunken log2 fold change
1,RRIRERPPRLPRPRPRPTKMPRP,-0.22
2,RRIRERPPRLPRPRPRPTLAPRP,0.269
3,RRIRERPPRLPRPRPRPTLLPRP,-0.137
4,RRIRERPPRLPRPRPRPTLVPRP,-0.0681
5,RRIRERPPRLPRPRPRPTPDPRP,0.116
6,RRIRERPPRLPRPRPRPTPKPRP,0.525
7,RRIRERPPRLPRPRPRPTPMPRP,0.0913
8,RRIRERPPRLPRPRPRPTPTPRP,0.174
9,RRIRERPPRLPRPRPRPTQAPRP,-0.0212
10,RRIRERPPRLPRPRPRPTQCPRP,-0.133
11,RRIRERPPRLPRPRPRPTSVPRP,-0.028
12,RRIRERPPRLPRPRPRPTSYPRP,-0.288
13,RRIRERPPRLPRPRPRPTTGPRP,-0.0235
14,RRIRERPPRLPRPRPRPTWPPRP,0.219
15,RRIRERPPRLPRPRPRPTYEPRP,-1.47
16,RRIRERPPRLPRPRPRPTYHPRP,-0.407
17,RRIRERPPRLPRPRPRPVAPPRP,0.246
18,RRIRERPPRLPRPRPRPVAYPRP,-0.178
19,RRIRERPPRLPRPRPRPVDAPRP,-0.137
20,RRIRERPPRLPRPRPRPVELPRP,-0.0276
21,RRIRERPPRLPRPRPRPVGDPRP,-0.0343
22,RRIRERPPRLPRPRPRPVGGPRP,0.21

row,Sequence,shrunken log2 fold change
1,RRIRERPPRLPRPRPRPVGIPRP,0.144
2,RRIRERPPRLPRPRPRPVHFPRP,0.0364
3,RRIRERPPRLPRPRPRPVHYPRP,0.198
4,RRIRERPPRLPRPRPRPVIKPRP,-0.201
5,RRIRERPPRLPRPRPRPVIMPRP,-0.458
6,RRIRERPPRLPRPRPRPVIQPRP,0.0166
7,RRIRERPPRLPRPRPRPVKCPRP,-0.069
8,RRIRERPPRLPRPRPRPVKQPRP,-0.0109
9,RRIRERPPRLPRPRPRPVKSPRP,-0.155
10,RRIRERPPRLPRPRPRPVMLPRP,0.055
11,RRIRERPPRLPRPRPRPVMRPRP,0.453
12,RRIRERPPRLPRPRPRPVPHPRP,-0.0329
13,RRIRERPPRLPRPRPRPVPKPRP,0.358
14,RRIRERPPRLPRPRPRPVQEPRP,0.0869
15,RRIRERPPRLPRPRPRPVQMPRP,-0.115
16,RRIRERPPRLPRPRPRPVSCPRP,0.182
17,RRIRERPPRLPRPRPRPVSVPRP,-0.022
18,RRIRERPPRLPRPRPRPVTFPRP,-0.019
19,RRIRERPPRLPRPRPRPVWEPRP,0.239
20,RRIRERPPRLPRPRPRPVWYPRP,-0.383
21,RRIRERPPRLPRPRPRPVYNPRP,-0.0493
22,RRIRERPPRLPRPRPRPVYVPRP,-1.11

row,Sequence,shrunken log2 fold change
1,RRIRERPPRLPRPRPRPVYYPRP,0.0224
2,RRIRERPPRLPRPRPRPWATPRP,0.127
3,RRIRERPPRLPRPRPRPWAYPRP,-0.552
4,RRIRERPPRLPRPRPRPWCQPRP,-0.0135
5,RRIRERPPRLPRPRPRPWDAPRP,-0.379
6,RRIRERPPRLPRPRPRPWETPRP,0.11
7,RRIRERPPRLPRPRPRPWGCPRP,-0.364
8,RRIRERPPRLPRPRPRPWHAPRP,0.421
9,RRIRERPPRLPRPRPRPWKDPRP,-0.162
10,RRIRERPPRLPRPRPRPWRAPRP,0.0397
11,RRIRERPPRLPRPRPRPWREPRP,0.127
12,RRIRERPPRLPRPRPRPWRRPRP,0.115
13,RRIRERPPRLPRPRPRPWSIPRP,0.0521
14,RRIRERPPRLPRPRPRPWSVPRP,-0.113
15,RRIRERPPRLPRPRPRPWSWPRP,0.103
16,RRIRERPPRLPRPRPRPWTHPRP,-0.0081
17,RRIRERPPRLPRPRPRPWYFPRP,-0.171
18,RRIRERPPRLPRPRPRPWYVPRP,-0.612
19,RRIRERPPRLPRPRPRPYATPRP,-0.359
20,RRIRERPPRLPRPRPRPYCEPRP,-0.0402
21,RRIRERPPRLPRPRPRPYDGPRP,-0.0116

# Reference: the supplement of paper PMC9112550, “Optimization of the antimicrobial peptide Bac7 by deep mutational scanning” (BMC Biology, 2022)
